Laboratory results reported in US20130209454A1.
Numbering of substitutions follows the chain as printed. Numbers in names are those of the source.

Key:
Experiment in all cases: cell-based or functional assay
[1] = target: HIV-1 Env of strain 0815.v3.c3 (HIV-1)
[2] = target: HIV-1 Env of strain 1056_10_TA11_1826 (HIV-1)
[3] = target: HIV-1 Env of strain 3415.v1.c1 (HIV-1)
[4] = target: HIV-1 Env of strain 6545.v4.cl (HIV-1)
[5] = target: HIV-1 Env of strain 6811.v7.c18 (HIV-1)
[6] = target: HIV-1 Env of strain 703357.C02 (HIV-1)
[7] = target: HIV-1 Env of strain 928-28 (HIV-1)
[8] = target: HIV-1 Env of strain CAAN5342.A2 (HIV-1)
[9] = target: HIV-1 Env of strain CNE20 (HIV-1)
[10] = target: HIV-1 Env of strain CNE58 (HIV-1)
[11] = target: HIV-1 Env of strain Ce0682_E4 (HIV-1)
[12] = target: HIV-1 Env of strain Ce2010_F5 (HIV-1)
[13] = target: HIV-1 Env of strain Du156.12 (HIV-1)
[14] = target: HIV-1 Env of strain P0402_c2_11 (HIV-1)
[15] = target: HIV-1 Env of strain PVO.4 (HIV-1)
[16] = target: HIV-1 Env of strain Q769.d22 (HIV-1)
[17] = target: HIV-1 Env of strain REJO4541.67 (HIV-1)
[18] = target: HIV-1 Env of strain RHPA4259.7 (HIV-1)
[19] = target: HIV-1 Env of strain T255-34 (HIV-1)
[20] = target: HIV-1 Env of strain T278-50 (HIV-1)
[21] = target: HIV-1 Env of strain WEAU_d15_410_787 (HIV-1)
[22] = target: HIV-1 Env of strain ZM109F.PB4 (HIV-1)
[23] = target: HIV-1 Env of strain ZM135M.PL10a (HIV-1)
[24] = target: HIV-1 Env of strain ZM214M.PL15 (HIV-1)
[25] = target: HIV-1 Env of strain ZM247v1(Rev-) (HIV-1)
[26] = target: HIV-1 Env of strain ZM53M.PB12 (HIV-1)
[27] = target: HIV-1 strain 1054_07_TC4_1499 envelope (gp120) (HIV-1)
[28] = target: HIV-1 strain 3415.v1.c1 envelope (gp120) (HIV-1)
[29] = target: HIV-1 strain 3817.v2.c59 envelope (gp120) (HIV-1)
[30] = target: HIV-1 strain 6540.v4.c1 envelope (gp120) (HIV-1)
[31] = target: HIV-1 strain C1080.c03 envelope (gp120) (HIV-1)
[32] = target: HIV-1 strain C2101.c01 envelope (gp120) (HIV-1)
[33] = target: HIV-1 strain CAP45.2.00.G3 envelope (gp120) (HIV-1)
[34] = target: HIV-1 strain CNE21 envelope (gp120) (HIV-1)
[35] = target: HIV-1 strain CNE53 envelope (gp120) (HIV-1)
[36] = target: HIV-1 strain CNE58 envelope (gp120) (HIV-1)
[37] = target: HIV-1 strain Ce0393_C3 envelope (gp120) (HIV-1)
[38] = target: HIV-1 strain Ce703010054_2A2 envelope (gp120) (HIV-1)
[39] = target: HIV-1 strain Du422.1 envelope (gp120) (HIV-1)
[40] = target: HIV-1 strain P1981_C5_3 envelope (gp120) (HIV-1)
[41] = target: HIV-1 strain PVO.4 envelope (gp120) (HIV-1)
[42] = target: HIV-1 strain Q461.e2 envelope (gp120) (HIV-1)
[43] = target: HIV-1 strain QH0692.42 envelope (gp120) (HIV-1)
[44] = target: HIV-1 strain REJO4541.67 envelope (gp120) (HIV-1)
[45] = target: HIV-1 strain RHPA4259.7 envelope (gp120) (HIV-1)
[46] = target: HIV-1 strain T251-18 envelope (gp120) (HIV-1)
[47] = target: HIV-1 strain T278-50 envelope (gp120) (HIV-1)
[48] = target: HIV-1 strain X1254_c3 envelope (gp120) (HIV-1)
[49] = target: HIV-1 strain ZM214M.PL15 envelope (gp120) (HIV-1)
[50] = target: HIV-1 Env of strain CAP210.2.00.E8 (HIV-1)

B1: NIH45-46^G54Y IgG (antibody, name in Kabat numbering, V domains shown)
VH: QVRLSQSGGQMKKPGESMRLSCRASGYEFLNCPINWIRLAPGRRPEWMGWLKPRYGAVNYARKFQGRVTMTRDVYSDTAFLELRSLTSDDTAVYFCTRGKYCTARDYYNWDFEHWGRGAPVTVSS
VL: EIVLTQSPATLSLSPGETAIISCRTSQSGSLAWYQQRPGQAPRLVIYSGSTRAAGIPDRFSGSRWGADYNLSISNLESGDFGVYYCQQYEFFGQGTKVQVDI
Q: Which results are given for B1?
A: neutralization IC50 [1]: < 0.001 µg/mL; neutralization IC50 [2]: 0.044 µg/mL; neutralization IC50 [3]: < 0.001 µg/mL; neutralization IC50 [4]: > 50 µg/mL; neutralization IC50 [5]: 0.011 µg/mL; neutralization IC50 [6]: 5.6 µg/mL; neutralization IC50 [7]: 0.12 µg/mL; neutralization IC50 [8]: 0.1 µg/mL; neutralization IC50 [9]: 0.33 µg/mL; neutralization IC50 [10]: 0.04 µg/mL; neutralization IC50 [11]: 0.017 µg/mL; neutralization IC50 [12]: 0.049 µg/mL; neutralization IC50 [13]: 0.007 µg/mL; neutralization IC50 [14]: 0.012 µg/mL; neutralization IC50 [15]: 0.06 µg/mL; neutralization IC50 [16]: 0.007 µg/mL; neutralization IC50 [17]: 0.007 µg/mL; neutralization IC50 [18]: 0.007 µg/mL; neutralization IC50 [19]: 0.04 µg/mL; neutralization IC50 [20]: > 50 µg/mL; neutralization IC50 [21]: 0.002 µg/mL; neutralization IC50 [22]: 0.026 µg/mL; neutralization IC50 [23]: 0.09 µg/mL; neutralization IC50 [24]: 0.06 µg/mL; neutralization IC50 [25]: 0.42 µg/mL; neutralization IC50 [26]: 0.06 µg/mL; neutralization IC80 [27]: 0.236 µg/mL; neutralization IC80 [28]: 0.037 µg/mL; neutralization IC80 [29]: > 50 µg/mL; neutralization IC80 [30]: > 50 µg/mL; neutralization IC80 [31]: 1.83 µg/mL; neutralization IC80 [32]: 0.27 µg/mL; neutralization IC80 [33]: > 50 µg/mL; neutralization IC80 [34]: 0.29 µg/mL; neutralization IC80 [35]: 0.027 µg/mL; neutralization IC80 [36]: 0.11 µg/mL; neutralization IC80 [37]: 0.134 µg/mL; neutralization IC80 [38]: 0.07 µg/mL; neutralization IC80 [39]: > 50 µg/mL; neutralization IC80 [40]: 0.09 µg/mL; neutralization IC80 [41]: 0.18 µg/mL; neutralization IC80 [42]: 0.103 µg/mL; neutralization IC80 [43]: 1.5 µg/mL; neutralization IC80 [44]: 0.02 µg/mL; neutralization IC80 [45]: 0.02 µg/mL; neutralization IC80 [46]: 1.16 µg/mL; neutralization IC80 [47]: > 50 µg/mL; neutralization IC80 [48]: 0.041 µg/mL; neutralization IC80 [49]: 0.23 µg/mL

B2: NIH45-46^G54F IgG (antibody, name in Kabat numbering, V domains shown)
VH: B1 VH with Y55F
VL: B1 VL
Q: Which results are given for B2?
A: neutralization IC50 [1]: < 0.001 µg/mL; neutralization IC50 [2]: 0.064 µg/mL; neutralization IC50 [3]: < 0.001 µg/mL; neutralization IC50 [4]: > 50 µg/mL; neutralization IC50 [5]: 0.017 µg/mL; neutralization IC50 [6]: 7.91 µg/mL; neutralization IC50 [7]: 0.11 µg/mL; neutralization IC50 [8]: 0.1 µg/mL; neutralization IC50 [9]: 0.53 µg/mL; neutralization IC50 [10]: 0.04 µg/mL; neutralization IC50 [11]: 0.011 µg/mL; neutralization IC50 [12]: 0.046 µg/mL; neutralization IC50 [13]: < 0.001 µg/mL; neutralization IC50 [14]: 0.008 µg/mL; neutralization IC50 [15]: 0.07 µg/mL; neutralization IC50 [16]: 0.005 µg/mL; neutralization IC50 [17]: 0.007 µg/mL; neutralization IC50 [18]: 0.005 µg/mL; neutralization IC50 [19]: 0.03 µg/mL; neutralization IC50 [20]: > 50 µg/mL; neutralization IC50 [21]: < 0.001 µg/mL; neutralization IC50 [22]: 0.022 µg/mL; neutralization IC50 [23]: 0.13 µg/mL; neutralization IC50 [24]: 0.09 µg/mL; neutralization IC50 [25]: 0.28 µg/mL; neutralization IC50 [26]: 0.08 µg/mL; neutralization IC80 [27]: 0.283 µg/mL; neutralization IC80 [28]: 0.029 µg/mL; neutralization IC80 [29]: > 50 µg/mL; neutralization IC80 [30]: > 50 µg/mL; neutralization IC80 [31]: 2.26 µg/mL; neutralization IC80 [32]: 0.42 µg/mL; neutralization IC80 [33]: > 50 µg/mL; neutralization IC80 [34]: 0.66 µg/mL; neutralization IC80 [35]: 0.024 µg/mL; neutralization IC80 [36]: 0.11 µg/mL; neutralization IC80 [37]: 0.173 µg/mL; neutralization IC80 [38]: 0.07 µg/mL; neutralization IC80 [39]: > 50 µg/mL; neutralization IC80 [40]: 0.11 µg/mL; neutralization IC80 [41]: 0.25 µg/mL; neutralization IC80 [42]: 0.135 µg/mL; neutralization IC80 [43]: 1.65 µg/mL; neutralization IC80 [44]: 0.028 µg/mL; neutralization IC80 [45]: 0.02 µg/mL; neutralization IC80 [46]: 1.38 µg/mL; neutralization IC80 [47]: > 50 µg/mL; neutralization IC80 [48]: 0.043 µg/mL; neutralization IC80 [49]: 0.3 µg/mL

B3: NIH45-46^G54W(HC), S28Y(LC) (antibody, V domains shown)
VH: B1 VH with Y55W
VL: B1 VL with S28Y
Q: With B3 as the binder, how does the IC50, pseudovirus neutralization [1] read?
A: 0.001 µg/mL

Q: And the IC50, pseudovirus neutralization [2]?
A: 0.057 µg/mL

Q: What about the IC50, pseudovirus neutralization [3] of the same binder?
A: 0.013 µg/mL

Q: What about the IC50, pseudovirus neutralization [5] of the same binder?
A: 0.026 µg/mL

Q: And the IC50, pseudovirus neutralization [7]?
A: 0.045 µg/mL

Q: What about the IC50, pseudovirus neutralization [8] of the same binder?
A: 0.078 µg/mL

Q: And the IC50, pseudovirus neutralization [50]?
A: 1.95 µg/mL

Q: And the IC50, pseudovirus neutralization [9]?
A: 0.001 µg/mL

Q: And the IC50, pseudovirus neutralization [10]?
A: 0.016 µg/mL

Q: And the IC50, pseudovirus neutralization [11]?
A: 0.007 µg/mL

Q: And the IC50, pseudovirus neutralization [12]?
A: 0.03 µg/mL

Q: And the IC50, pseudovirus neutralization [13]?
A: 0.003 µg/mL

Q: What about the IC50, pseudovirus neutralization [14] of the same binder?
A: 0.01 µg/mL

Q: What about the IC50, pseudovirus neutralization [15] of the same binder?
A: 0.014 µg/mL

Q: And the IC50, pseudovirus neutralization [16]?
A: 0.003 µg/mL

Q: And the IC50, pseudovirus neutralization [17]?
A: 0.001 µg/mL

Q: What about the IC50, pseudovirus neutralization [18] of the same binder?
A: 0.001 µg/mL

Q: And the IC50, pseudovirus neutralization [19]?
A: 0.013 µg/mL

Q: And the IC50, pseudovirus neutralization [20]?
A: > 50 µg/mL

Q: And the IC50, pseudovirus neutralization [21]?
A: 0.008 µg/mL

Q: And the IC50, pseudovirus neutralization [22]?
A: 0.013 µg/mL

Q: And the IC50, pseudovirus neutralization [23]?
A: 0.049 µg/mL

Q: And the IC50, pseudovirus neutralization [24]?
A: 0.036 µg/mL

Q: And the IC50, pseudovirus neutralization [25]?
A: 0.001 µg/mL

Q: And the IC50, pseudovirus neutralization [26]?
A: 0.091 µg/mL
